Experimental data as given in patent US20150315606.

B1: CO2-regulated secreted subtilisin-like serine protease (CRSP), STREP II-tagged, synthesized in vitro in the wheat germ system (protein)
chain: MKGITFFTPFLSFLYLLCILFMTETEAGSRNGDGVYIVYMGSASSAANANRAQILINTMFKRRANDLLHTYKHGFSGFAARLTAEEAKVIAKKPGVVSVFPDPHFQLHTTHSWDFLKYQTSVKVDSGPPSSASDGSYDSIVGILDTGIWPESESFNDKDMGPIPSRWKGTCMEAKDFKSSNCNRKIIGARYYKNPDDDSEYYTTRDVIGHGSHVSSTIAGSAVENASYYGVASGTAKGGSQNARIAMYKVCNPGGCTGSSILAAFDDAIADGVDVLSLSLGAPAYARIDLNTDPIAIGAFHAVEQGILVICSAGNDGPDGGTVTNTAPWIMTVAANTIDRDFESDVVLGGNKVIKGEGIHFSNVSKSPVYPLIHGKSAKSADASEGSARACDSDSLDQEKVKGKIVLCENVGGSYYASSARDEVKSKGGTGCVFVDDRTRAVASAYGSFPTTVIDSKEAAEIFSYLNSTKDPVATILPTATVEKFTPAPAVAYFSSRGPSSLTRSILKPDITAPGVSILAAWTGNDSSISLEGKPASQYNVISGTSMAAPHVSAVASLIKSQHPTWGPSAIRSAIMTTATQTNNDKGLITTETGATATPYDSGAGELSSTASMQPGLVYETTETDYLNFLCYYGYNVTTIKAMSKAFPENFTCPADSNLDLISTINYPSIGISGFKGNGSKTVTRTVTNVGEDGEAVYTVSVETPPGFNIQVTPEKLQFTKDGEKLTYQVIVSATASLKQDVFGALTWSNAKYKVRSPIVISSESSRTN
B2: SDD1 protease, STREPII tagged, synthesized in the SP6-TNT wheat germ system (protein)
chain: MEPKPFFLCIIFLLFCSSSSEILQKQTYIVQLHPNSETAKTFASKFDWHLSFLQEAVLGVEEEEEEPSSRLLYSYGSAIEGFAAQLTESEAEILRYSPEVVAVRPDHVLQVQTTYSYKFLGLDGFGNSGVWSKSRFGQGTIIGVLDTGVWPESPSFDDTGMPSIPRKWKGICQEGESFSSSSCNRKLIGARFFIRGHRVANSPEESPNMPREYISARDSTGHGTHTASTVGGSSVSMANVLGNGAGVARGMAPGAHIAVYKVCWFNGCYSSDILAAIDVAIQDKVDVLSLSLGGFPIPLYDDTIAIGTFRAMERGISVICAAGNNGPIESSVANTAPWVSTIGAGTLDRRFPAVVRLANGKLLYGESLYPGKGIKNAGREVEVIYVTGGDKGSEFCLRGSLPREEIRGKMVICDRGVNGRSEKGEAVKEAGGVAMILANTEINQEEDSIDVHLLPATLIGYTESVLLKAYVNATVKPKARIIFGGTVIGRSRAPEVAQFSARGPSLANPSILKPDMIAPGVNIIAAWPQNLGPTGLPYDSRRVNFTVMSGTSMSCPHVSGITALIRSAYPNWSPAAIKSALMTTADLYDRQGKAIKDGNKPAGVFAIGAGHVNPQKAINPGLVYNIQPVDYITYLCTLGFTRSDILAITHKNVSCNGILRKNPGFSLNYPSIAVIFKRGKTTEMITRRVTNVGSPNSIYSVNVKAPEGIKVIVNPKRLVFKHVDQTLSYRVWFVLKKKNRGGKVASFAQGQLTWVNSHNLMQRVRSPISVTLKTN

Tests used:
[1] = target: T1, synthetic EPF2 peptide (synEPF2), 30 AA partial EPF2 peptide spanning the predicted cleavage site, Dabcyl-SKNGGVEMEMYPTGSSLPDCSYACGACSPC-Glu(EDANS)
T1 chain: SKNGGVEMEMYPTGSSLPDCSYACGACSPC

[2] = target: T2, synthetic fluorogenic EPF1 peptide
T2 chain: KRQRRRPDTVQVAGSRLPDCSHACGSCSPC

Row | Protein | MALDI-TOF-MS hits of cleavage fragment SKNGGVEMEMYPTGS (SEQ ID NO:131) [1] | MALDI-TOF-MS hits of cleavage fragment SKNGGVEMEMYPTGSSL (SEQ ID NO:130) [1] | MALDI-TOF-MS hits of cleavage fragment SKNGGVEMEMYPTGSSLPD (SEQ ID NO:129) [1] | MALDI-TOF-MS hits of the uncleaved 30 aa peptide [1] | synthetic peptide and protease fluorogenic cleavage assay [1] | synthetic peptide and protease fluorogenic cleavage assay [2]
1 | B1 | (5 hits) | (3 hits) | (14 hits) | The 30 aa, full length, uncleaved peptide was also seen (14 hits) | EPF2 cleavage sample traces indicate that EPF2 cleavage by CRSP could be specific (compared with SDD1) | EPF1 cleavage by both SDD1 and CRSP shows low affinity
2 | B2 |  |  |  |  |  | EPF1 cleavage by both SDD1 and CRSP shows low affinity
